{"source": "patent US20120107299", "proteins": {"B1": {"name": "GST (Glutathione S-Transferase)-NDRG2 fusion protein (protein)", "chain": "MAELQEVQITEEKPLLPGQTPEAAKTHSVETPYGSVTFTVYGTPKPKRPAILTYHDVGLNYKSCFQPLFQFEDMQEIIQNFVRVHVDAPGMEEGAPVFPLGYQYPSLDQLADMIPCVLQYLNFSTIIGVGVGAGAYILARYALNHPDTVEGLVLINIDPNAKGWMDWAAHKLTGLTSSIPEMILGHLFSQEELSGNSELIQKYRNIITHAPNLDNIELYWNSYNNRRDLNFERGGDITLRCPVMLVVGDQAPHEDAVVECNSKLDPTQTSFLKMADSGGQPQLTQPGKLTEAFKYFLQGMGYMASSCMTRLSRSRTASLTSAASVDGNRSRSRTLSQSSESGTLSSGPPGHTMEVSC"}}, "key": {"[1]": {"biological_target": "FLAG-PTEN, P60484"}, "[2]": {"biological_target": "T1, pSer380 PTEN", "T1 chain": "EPDHYRYSDTTDSDPENE"}, "[3]": {"biological_target": "T2, pSer380/pThr382/pThr 383 PTEN", "T2 chain": "EPDHYRYSDTTDSDPENE"}, "[4]": {"biological_target": "T3, pThr382 PTEN", "T3 chain": "EPDHYRYSDTTDSDPENE"}, "[5]": {"biological_target": "T4, pThr382/pThr 383 PTEN", "T4 chain": "EPDHYRYSDTTDSDPENE"}, "[6]": {"biological_target": "T5, pThr383 PTEN", "T5 chain": "EPDHYRYSDTTDSDPENE"}}}
{"protein": "B1", "values": [{"measurement": "in vitro dephosphorylation of PTEN, Western blot with anti-PTEN antibodies specific to each phosphorylation", "setting": "[1]", "value": "dephosphorylation effects were recognized in BAP used as a positive control, and in GST-NDRG2"}, {"measurement": "phosphorylation status of PTEN protein by various PTEN phosphorylation antibodies after the reaction", "setting": "[1]", "value": "only S380, T382, and T383 are dephosphorylated by mixing with NDRG2, and S370 and S385 are not altered"}, {"measurement": "dephosphorylation of phosphorylated peptides (DOTBLOT method)", "setting": "[2]", "value": "cannot dephosphorylate the peptide wherein only S380 or only T383 is phosphorylated"}, {"measurement": "dot blot phosphatase assay, detection with rabbit anti-Phospho-PTEN (Ser380/Thr382/Thr383) polyclonal antibodies", "setting": "[3]", "value": "signals disappeared in the phosphorylated peptides at Thr382, Thr382/Thr383, and Ser380/Thr382/Thr383 by the reaction with NDRG2 protein"}, {"measurement": "dot blot phosphatase assay, detection with rabbit anti-phospho-PTEN (Ser380) polyclonal antibodies", "setting": "[3]", "value": "a signal disappeared in the phosphorylated peptide of Ser380/Thr382/Thr383 by the reaction with NDRG2 protein"}, {"measurement": "production level of the phosphoric acid groups (phosphopeptide phosphatase assay, BIOMOL GREEN)", "setting": "[3]", "value": "an increase in the production level of the phosphoric acid groups in the Thr382/Thr383 peptide and Ser380/Thr382/Thr383 peptide was recognized compared to the phosphorylation of Thr382 alone"}, {"measurement": "dephosphorylation activity (phosphopeptide phosphatase assay, free phosphate by BIOMOL GREEN)", "setting": "[4]", "value": "NDRG2 showed a dephosphorylation activity against the peptide including the phosphorylation at Thr382 of PTEN"}, {"measurement": "dot blot phosphatase assay, detection with rabbit anti-Phospho-PTEN (Ser380/Thr382/Thr383) polyclonal antibodies", "setting": "[4]", "value": "signals disappeared in the phosphorylated peptides at Thr382, Thr382/Thr383, and Ser380/Thr382/Thr383 by the reaction with NDRG2 protein"}, {"measurement": "dot blot phosphatase assay, detection with rabbit anti-Phospho-PTEN (Ser380/Thr382/Thr383) polyclonal antibodies", "setting": "[5]", "value": "signals disappeared in the phosphorylated peptides at Thr382, Thr382/Thr383, and Ser380/Thr382/Thr383 by the reaction with NDRG2 protein"}, {"measurement": "production level of the phosphoric acid groups (phosphopeptide phosphatase assay, BIOMOL GREEN)", "setting": "[5]", "value": "an increase in the production level of the phosphoric acid groups in the Thr382/Thr383 peptide and Ser380/Thr382/Thr383 peptide was recognized compared to the phosphorylation of Thr382 alone"}, {"measurement": "dephosphorylation of phosphorylated peptides (DOTBLOT method)", "setting": "[6]", "value": "cannot dephosphorylate the peptide wherein only S380 or only T383 is phosphorylated"}]}
